This passage reports Kd, ADCC EC50 (ng/ml), DoHH-2 target cells, human PBMCs and ADCC log(EC50), DoHH-2 target cells, human PBMCs results from US20060121032A1.

Chain of extracellular region of human F158 FcγRIIIa with C-terminal 6×His-tag and GST-tag (human) (P08637 17-208): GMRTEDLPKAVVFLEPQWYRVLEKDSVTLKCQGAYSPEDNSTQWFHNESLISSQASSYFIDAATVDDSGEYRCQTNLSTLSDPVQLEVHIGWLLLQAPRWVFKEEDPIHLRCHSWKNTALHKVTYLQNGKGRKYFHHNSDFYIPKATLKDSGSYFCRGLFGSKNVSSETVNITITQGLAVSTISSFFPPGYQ

One experiment has as its target extracellular region of human F158 FcγRIIIa with C-terminal 6×His-tag and GST-tag (human) (UniProt P08637). Nature of the experiment: SPR, receptor on chip.
Take WT alemtuzumab (antibody): the Kd is 730 nM. In other words, the sub-micromolar range.
Still for that read-out and setting: the value for alemtuzumab I332E (antibody) was 72 nM; that for alemtuzumab S298A (antibody) was 285 nM; that for “alemtuzumab S298A/E333A/K334A (antibody)” was 156 nM.
Still for that read-out and setting: the value for alemtuzumab V264I (antibody) was 550 nM; that for alemtuzumab V264I/I332E (antibody) was 52 nM.

The target in the next experiment is FcγRIIIa on human PBMCs expressing heterozygous V158/F158 FcγRIIIa (human) (UniProt P08637). The experiment is described as follows: cell-based or functional assay.
Chain of FcγRIIIa on human PBMCs expressing heterozygous V158/F158 FcγRIIIa (human) (P08637 17-254): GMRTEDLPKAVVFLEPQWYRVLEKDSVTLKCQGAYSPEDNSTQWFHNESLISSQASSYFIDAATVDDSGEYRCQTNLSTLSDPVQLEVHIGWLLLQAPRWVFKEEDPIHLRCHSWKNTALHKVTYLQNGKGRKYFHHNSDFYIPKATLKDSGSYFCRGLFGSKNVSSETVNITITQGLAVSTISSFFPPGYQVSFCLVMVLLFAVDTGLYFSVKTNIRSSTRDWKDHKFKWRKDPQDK
As for alemtuzumab S239D/I332E (antibody), the ADCC EC50 (ng/ml), DoHH-2 target cells, human PBMCs is 3 ng/mL and the ADCC log(EC50), DoHH-2 target cells, human PBMCs is 0.49 log(ng/ml).
The matching figures for alemtuzumab V264I/I332E (antibody): 4 ng/mL and 0.6 log(ng/ml).
